According to the DeepSol protein solubility set:

experiment: soluble on expression in E. coli; label from the status in PepcDB or PDB records

| Sequence | soluble on expression in E. coli |
| --- | --- |
| MSLELKYKIGFPSLYYPKISLADRIDAAAEKFGEKTAIISAEPKFPSEFPESMNFLEICEVTKKLASGISRKGVRKGEHVGVCIPNSIDYVMTIYALWRVAATPVPINPMYKSFELEHILNDSEATTLVVHSMLYENFKPVLEKTGVERVFVVGGEVNSLSEVMDSGSEDFENVKVNPEEDVALIPYTGGTTGMPKGVMLTHFNLAANALQLAVATGLSHMDTIVGCMPMFHSAEFGLVNLMVTVGNEYVVMGMFNQEMLAENIEKYKGTFSWAVPPALNVLVNTLESSNKTYDWSYLKVFATGAWPVAPALVEKLLKLAAEKCNNPRLRHNQIWGMTEACPMVTTNPPLRLDKSTTQGVPMSDIELKVISLEDGRELGVGESGEIVIRGPNIFKGYWKREKENQECWWYDEKGRKFFRTGDVGFIDEEGFLHFQDRVKEVIKYKGYTIAPFELEALLMKHEAVMDVAVIGKPDEEAGEVPKAFIVLKPEYRGKVDEEDIIEWVRERISGYKRVREVEFVEELPRTASGKLLRRLLREKEAEGHHHHHH | soluble |
| MATRPKTIWESFLSPVVRFLMDEDKWRRYAQSIDWEKESDRFRRTDVIIPSYYTSQNFHGIEGGYLNSSAAVTYDPITEYVLPPNETLVRQALIDGVKVQPRRILDLGCGTGSTTLMLKQAFPQADVIGLDLSPYMLVRAEDKARTADLDISWRHGNAEKTSFPNASFDLVTTSLLFHETPVEVSQTILQECFRLLVAGGQVIILDGNQKSLRQLNWLNDIFEEPYIREYAADNLDARMGAAGFVGVQTEDLWLIHQVTSGIKPILATDTNQIKDRQYMPAIDNNNLEGLESPAFGIVALEHHHHHH | not soluble |
| RFTPRWIVRFLVENSLGRLWAEMHPDSRLKDSLSYLVPIENSQAHPLKLVRDITFLDPSCGSMHFGLVAFDLFAEMYREEFEKAGQPGWPENPSVNAEDEIASSIIAHNLHGIDIDLRSVQISALTLLLRARTLSPKCAFTDRNLACANVEQTSGGKLETLIAAAKFSHPIYERVLRTLAAEMKDSDQLGSLLRLERSLERLVIEERRKAEENKQFLLSFPGISPEQFDTQAGIEEFFDLLSDQLLRHLDFFVRASREMGGDPGHIVNEAAKGLRYMQLVSHHYDVVATNPPYMSRRNMSDVIAKHLDKHYPETKGDLYAAFIARCLELVAPQGKVAMVTQQSFMFIGTYEKFRSNLLSRVTVETMAHLGPKAFPNITGEKVNTTAFVIRREPDG | not soluble |
| MKIAAIYTQSVGPLPDGEIRFENDWSGEIESNVLITGPNGCGKSTLLRAISLLWRAFGHWLGTGTRLNIKDESYTWFYRWDASCAMILDSFSPKSEDQIGLFLGSEAFLVQLKEKYPQVYWLGETVSRTKGTTPETTVFTSSEHFFLPYKNWWSHWSSQYQRLVLKGPSVDMPNLVYLDAEARRWVRPQKDIGSLSPDDSTQAWLATYEVNDNWKGQLESSLFNMKATMPGEYPEMIATLNQFFSGKRIEAEIHPGQRQRVLLDSGNDHSLDALSSGEHQVLIMLFTVQRWLQPGGVVLIDEPDLHLHPSLISPLLASIENIVARKNGQLVMTSHATDIWQRYDNMGLRIDLTDGKDAENGQRLEHHHHHH | soluble |
| MYFPAAIDTSLAAEDLGIWAPIDHQRIISLLTIGLGVLYHREKAISLEPLPETMLDEGKASPVPDISLRDNSASQTPIIIEVCHTNGLKGDLRKVIQLIDDGDYGIQEGFIYDYRAGTWVLYRSGGDGLTQSTSFSDILQLDLNQFL | not soluble |
| MSLKNKLQVKIPGKLYVAGEYAVVESGHTAILTAVNRYITLTLEDSERNELWIPHYENPVSWPIGGELKPDGEHWTFTAEAINIATTFLKSEGIELTPVKMVIETELIDQSGAKYGLGSSAAATVAVINALMTKFYPEISMLKKFKLAALSHLVVQGNGSCGDIASCMYGGWIAYTTFDQEWVKHRLAYKSLEWFMKEPWPMLQIETLEEPVPTFSVGWTGTPVSTGKLVSQIHAFKQEDSKNYQHFLTRNNEIMKQIIQAFHTKDEELLYSSIKENRRILQELGTKAGVNIETSLLKELADSAENMGGAGKSSGSGGGDCGIAFSKTKELAEKLVNEWEKLGIKHLPFHTGRVQITEGHHHHHH | soluble |
| MRITHLGHSCILVEAAGQRILVDPGNLSRSWRGLTDLDAILVTHRHPDHVDPEHIGALVDANSGAVVRAEEGACHEIPALDADPVAPGDVLQIGEVRIEAVGGRHAVIHRDLEPIGNVGYLIGEGLGTILYHPGDELDETPRGVDVLACPAHAPWAAMKETVDFARSVGARHGFLIHEGLLNGRGWQLSFDRHQEMVPTTFHDLRNGQPWEVPQDLEHHHHHH | not soluble |
| MSLGAQTLEYWVYSDFAQGEALALQQDFIKEFQESHPGVTVNIVGKGDDDLTAGQIAGAASGNLPDVFMNAVGVGAQLVDVGALANIHDKWMAMPEEFRAQFNKGAVENCAPRPEEMYCIPYTGYGTLLFRNLTVLEEAGIDTSAPPADWADWLAQMEKVKAAGKFAIPDQALVFNSIAEMYGVTGDVSTWGIDWESKTTRIDPAVMTSVLEKFVAMQPLTSGTSRNDQATKDLFVTNQLAFHTIGPWVNPTYVEAVENSGLKYDFVLMPGETADKHGGIKNFEIVGVAPGENLDLAFEFATYITAKEQMARWAKLLSRYNSNDAAMAEADVAALPLVARSVAAVEVTMDVSPPYLIQPVPACYQSTVVDYVSATADGEFTPEEGAAEMIAELNDCLAGEGHHHHHH | soluble |
| GSHMAPDCSQPLDVILLLDGSSSFPASYFDEMKSFAKAFISKANIGPRLTQVSVLQYGSITTIDVPWNVVPEKAHLLSLVDVMQREGGPSQIGDALGFAVRYLTSEMHGARPGASKAVVILVTDVSVDSVDAAADAARSNRVTVFPIGIGDRYDAAQLRILAGPAGDSNVVKLQRIEDLPTMVTLGNSFLHKLCSG | soluble |
| AISQDYNINMSGGNDKGTYYAGLGYNRQEGLPIKTFYERYSFVLNASYKITDWLTSSSNFNYNRANWKNMPGSQTSEGNYFGRIMSTPPTVRFQDEDGNPTLGPVAGDGNQNYQPDKWWNFNQSDKFTMVQAFQIDILKNLSVKGTANWYYSESLAESFTRDYENTPGQFVRTRSSSASFSRNFSQTYNVVLNYNQTFAKDHNVAVMLGMEYFDRYSRSFSASGSGAPTDDFADLSLTDNGEGKRSIDSGHSDYRILSYFGRLNYDYKGRYLLSAVFRQDGYSSLLGDNRWGFFPGVSAGWIFGQENFVKNALPFLSFGKLRASYGVNGNATGIGAYDLQGSYNSQKYNGNVGFLIGALPNPGLKWEKTRTAEVGIDMSFFENRLNANFTYYNRLTSDKYANLSLPSTTGFSSIKNNNGKFRNSGVEIELSGKILKTKDWSWDLGGNISFNKNKIVSLPDNGLIRNQQDAAQIYSGRQLSDGTYEKIWVGGNQEGYEPGVLIAYKADGLYRSWDEIPGDLVVTSGNYFGKKMYGPEAWKKLSSAEQKNALPIQPGDVKWRDINGDGMIDNYDQVVVGNTNPHWIGGFNTTLRWKNFQLYGRFDFAFDYWIYDNTTPWFLGCMQGTYNTTKDVFNTWSEENPNAKYPRFVYADQLMNANYYRTSTLFAYKGNYLAIREISLSYSLPKAWANKAYCQKVDVSITGQNLGYITSANVASPEVSSAGSGYALPRTLLFGLNVTF | not soluble |
| MGSDKIHHHHHHMAIACVNTRASCGVEAPKVTVEVHLSNGLPAFNLVGLPEASVKEARERVRSALINAGFEFPMRRITVNLAPADLPKQGGRYDLPIAVGILAASEQIPANSLKNLEFVGELALSGQIRYCQGLLPAIIAAKRQDNTLILPLENRHDAELVGYQKVFFGSHLQSLAAFLQGQAPLPELDTHLEWVSEEQSYDSSQCLSDVIGQYQAKQALEIAAAGNHNLLMLGPPGTGKTMLASRMMALLPALSYEEALEVAAIHSVAGLDIKPQDFLKRPFRAPHHTSSSISLVGGGSIPKPGEISLAHRGVLFLDEVAEFPRKVLDCLREPMETGEVVISRAAAKLTFLSRFQLIAAMNPSPSGDIDANNRATPDQVQRYLARLSGPFLDRFDLTIEVPKLPAGTLTQAMAPSETSQDVAKRVRRARDIQLARSGVLNSELTGKQLKLFSGLTDADLIFLEQSVVKLGLSVRSFHRIQRVARTIADLEQSPNTERRHLAQALGYRAMDRLLARLSQQY | not soluble |
| GPGSMYHGNGSVNDAADASFCPQPSPTRPSREAPPSAPPPTGRVTRTQALARLLRGEGSSTHTKPVRAPGNDAKELKVSETRKECVVGEVQADAPPKKSEGTSSHAAVPLAASATITPDDRDDIGAALQEIGDASRRHRRHSHDAEGTSGDAVRDDASDGGAANMSDDYNGDDNSESTCSARRSGAGSAPAEGFSAHPTHARARGRAVSTRQAANALPRMLALQRSFEAEAKHLYEYCGTHVVEWPTLAVEWIPDRAFVDPERDYTLQYLAIGTQAHPLSGAANAVKVMEVAVPVTAAKDVMYGLYGDDDTAGVEAVDPAREGGIDPGKRFANVKGHFHCEQTLTMDAAVLKIRAMPAETNVIAVKTASGFIGVYNLLQDLTQNEAGRTVPDALLCGHRRGGFGLSWNALKPGFIASAADDGYVNYYDVSHRLTIDVREASDVDPALTGPETQPLERLVGHRDIVTDCCWHSSQGHLLASSSMDGDARLWDIRMSAGSSTIPSAHASGATAAQFHPIGAFQLATAGAEGSISLWDIRRTADPVWELNYHGRPITGLQWSPFCETVMLSYGADGRVVLWDLAKTTLPLGYSEDQLAPPEVSFVHIGHVGRVTDASWNSSTTEEWLLASADTTNGVHVYRPLVNVVQDYRAYQH | not soluble |
| METQWTRMTANEAAEIIQHNDMVAFSGFTPAGSPKALPTAIARRANEQHEAKKPYQIRLLTGASISAAADDVLSDADAVSWRAPYQTSSGLRKKINQGAVSFVDLHLSEVAQMVNYGFFGDIDVAVIEASALAPDGRVWLTSGIGNAPTWLLRAKKVIIELNHYHDPRVAELADIVIPGAPPRRNSVSIFHAMDRVGTRYVQIDPKKIVAVVETNLPDAGNMLDKQNPMCQQIADNVVTFLLQEMAHGRIPPEFLPLQSGVGNINNAVMARLGENPVIPPFMMYSEVLQESVVHLLETGKISGASASSLTISADSLRKIYDNMDYFASRIVLRPQEISNNPEIIRRLGVIALNVGLEFDIYGHANSTHVAGVDLMNGIGGSGDFERNAYLSIFMAPSIAKEGKISTVVPMCSHVDHSEHSVKVIITEQGIADLRGLSPLQRARTIIDNCAHPMYRDYLHRYLENAPGGHIHHDLSHVFDLHRNLIATGSMLGLEHHHHHH | not soluble |
| MNQQTYAFTLEMEVRDYECDMQGIVNNSVYQNYLEHARHVYLKTVGIDFKEFTERGINLVVVRAELDYKLPLQSGDRFRVGLNMVRQSPLRFAFYQDILRLPDMKPAVKARIIGTALNGRGRPEIPAELEALMQPGELEHHHHHH | soluble |
| MCLVKDKLKDIISVKSALSFSLKGDFDCPLEENSLFKALQILKNFLKSKNFSHSVIKSLDTLAIEVEKNIPTQAGLGGGSTDAGGLLYHLNQIFDWRLSLEELYSMGSLVGADTNFFISQYKSTNATSYGEVIENFEEEPLENRLEIYAPNHVFCSTKAVYQAYKPETCFSQAKEWLKKPSLECLKTYDRNGLNDLLKPALLTNQALKDIESELGKEWFFSGSGSAFFRLKPMQKGGELEHHHHHH | not soluble |
| MSLEATIRLGSSLPLTGHARYLGVETLRGALAYINHVNDSGGVHGRRIELDARDDGYDPPRCLANTQEQLISGEVFALTCYVGTPTTMRILPLVDEARIPLVGAFTGANGLRDPFSRYVFNVRASYYQETDAAVRHLVHDLGLTRIAVFYQYDAYGFDGLTGTELALRELGLAPVARGSYARGTDNIEDGLHRIIASDAEAVLMVGTSEPTARFIRMAEEAGFDAVYHALSFTGAEELARLLGHTDAKVLLSQVVPPPDAPEAPAILGCTTEYVNLLKRYYPDATPSAIGLEGYINARILVEGLRRAGPDLTREGFVRALESLRDYPLGGRTVVSFSPESRQGMGSVYFTRLVGGRFELMREAGAPPSAARPASNKGEGHHHHHH | soluble |
